The subject of assay [1] is Escherichia coli. The experiment in a line: Antibacterial activity against E. coli in the presence of iron (Test 8). In kind it is cell-based. The following applies: 0.01 mM of ferrous sulfate.
Assay [2] in a line: Preservation of cow's milk, change in appearance (Test 7). The following applies: cow's milk at 25° C. The method, then: The antibacterial activity of hydrolyzates of iron saturated LF was tested in the same manner as in test 5, except that hydrolyzates of iron saturated LF prepared in the same manner as in Example 5 and cow's milk sold in the market were used.
Each of three kinds of samples, to one of which is added hydrolyzate of Fe-LF, to another one of which is added unhydrolyzed LF and the third of which is added nothing, were respectively distributed into 3 test tubes (in total 9) and preserved at 25° C. for observation of any change in appearance.

The next assay has as its system viable bacterial count. Description: Viable bacterial count of treated sliced vegetables (Test 4). The following applies: dipped in 1% aqueous solution 30 seconds, preserved at 5° C. The method, then:
A quantity of sliced vegetables sold in the market was divided into three parts. […] Each of the treated samples was drained then preserved at 5° C. for observation. Viable bacterial count of the samples was periodically determined by the conventional method.

Assay [3] concerns Escherichia coli. Description: Antibacterial activity: proliferation inhibition of E. coli in liquid culture medium (Tests 1, 3, 6). In kind it is cell-based. The method, then:
From the stock culture of Escherichia coli, a loop of bacterial cells was taken out with a platinum loop and smeared onto a standard plate agar medium (by Nissui Seiyaku), followed by incubation at 35° C. for 16 hours under aerobic condition.
Basic culture medium (liquid culture medium) was prepared by dissolving bactocasitone (by Difco) into purified water in 1% concentration, adjusting the pH of the resultant solution to 7.0 with 1M sodium hydroxide, then sterilizing at 115° C. for 15 minutes.
The solutions of LF hydrolyzates previously prepared in item 1-1) were respectively filtered with membrane filters (by Advantech) to remove microorganisms which might be included therein. Different quantities of each of filtered solutions of LF hydrolyzates were respectively added to a portion of the basic culture medium to give 6 lots of test culture media containing LF hydrolyzate in different concentrations for each LF hydrolyzate having different decomposition rates as shown in Table 1. Control culture media containing unhydrolyzed LF in different concentrations were also prepared in the same manner as in the test culture media.
To each of the test and control culture media, the pre-culture was inoculated in 1% concentration, followed by incubation at 35° C. for 16 hours. The proliferation inhibition rate was determined by measuring the optical density of the culture broth in the same manner as previously described and calculating in accordance with the following formula:
proliferation inhibition rate (%)=100-(A/B×100)
(wherein A denotes the difference of optical densities of the test culture media before and after 16 hours incubation, B denotes the difference of optical densities of the control culture media before and after 16 hours incubation respectively) and
Antibacterial activity against E. coli of LF hydrolyzate having a 12% decomposition rate prepared in the same manner as in Example 2 (hydrolysis by citric acid) and that of unhydrolyzed LF were determined in the same manner as in Test 1.
Aqueous solutions of 10 kinds of LF hydrolyzate (prepared using different enzymes) and an aqueous solution of unhydrolyzed LF prepared in the same manner as in test 2 were filtered with membrane filters (by Advantec) to remove bacterial cells which might be contaminated therein. Each of the solutions was added to basic culture media (the same with that in Test 1) in different concentrations (50, 100, 250, 500, and 1000 ppm) to prepare test cultures and control cultures.
Antibacterial activity was tested for these cultures in the same manner as in test 1.

[4] abbreviates: preservation day 10, 3 test tubes.
Setting [5] is: preservation day 14, 3 test tubes.

B1: lactoferrin (protein, UniProt P24627 20-708, looked up)
Lactotransferrin: APRKNVRWCTISQPEWFKCRRWQWRMKKLGAPSITCVRRAFALECIRAIAEKKADAVTLDGGMVFEAGRDPYKLRPVAAEIYGTKESPQTHYYAVAVVKKGSNFQLDQLQGRKSCHTGLGRSAGWIIPMGILRPYLSWTESLEPLQGAVAKFFSASCVPCIDRQAYPNLCQLCKGEGENQCACSSREPYFGYSGAFKCLQDGAGDVAFVKETTVFENLPEKADRDQYELLCLNNSRAPVDAFKECHLAQVPSHAVVARSVDGKEDLIWKLLSKAQEKFGKNKSRSFQLFGSPPGQRDLLFKDSALGFLRIPSKVDSALYLGSRYLTTLKNLRETAEEVKARYTRVVWCAVGPEEQKKCQQWSQQSGQNVTCATASTTDDCIVLVLKGEADALNLDGGYIYTAGKCGLVPVLAENRKSSKHSSLDCVLRPTEGYLAVAVVKKANEGLTWNSLKDKKSCHTAVDRTAGWNIPMGLIVNQTGSCAFDEFFSQSCAPGADPKSRLCALCAGDDQGLDKCVPNSKEKYYGYTGAFRCLAEDVGDVAFVKNDTVWENTNGESTADWAKNLNREDFRLLCLDGTRKPVTEAQSCHLAVAPNHAVVSRSDRAAHVKQVLLHQQALFGKNGKNCPDKFCLFKSETKNLLFNDNTECLAKLGGRPTYEEYLGTEYVTAIANLKKCSTSPLLEACAFLTR
notes: Native LF sold in the market (by Oleofina, Belgium), not hydrolyzed; control of Tests 1, 3-6, 8
With B1, in the assay on Escherichia coli [1], the “antibacterial activity in the presence of ferrous sulfate, in words” value is “deactivated”. Also, the “change in appearance of milk” value in assay [2] (setting [4]) is reported as “did not show any change in appearance”; in assay [2] (setting [5]), “all of the samples showed coagulation”. In addition, the viable bacterial counts with viable bacterial count (0 hours) was 5.1 × 10^3 per 1 g of sliced vegetables; with viable bacterial count (12 hours), 2.0 × 10^4 per 1 g of sliced vegetables; with viable bacterial count (24 hours), 1.8 × 10^5 per 1 g of sliced vegetables; with viable bacterial count (36 hours) it was 2.2 × 10^5 per 1 g of sliced vegetables. In addition, in the assay with Escherichia coli [3] (Table 1), the “quantity added at which antibacterial activity was shown” value is on record as “more than 250 ppm”. For the same molecule, the proliferation inhibition rate entry in the assay with Escherichia coli [3] (Table 1, concentration 1000 ppm) is on record as “complete inhibition could not be achieved”; in the assay with Escherichia coli [3] (Table 3, quantity added 25 ppm), 0%; in the assay with Escherichia coli [3] (Table 3, quantity added 50 ppm) it was 0%; in the assay on Escherichia coli [3] (Table 3, quantity added 100 ppm), 5%; in the assay with Escherichia coli [3] (Table 3, quantity added 250 ppm), 16%; with Escherichia coli [3] (Table 3, quantity added 500 ppm) it was 74%. Also, the proliferation inhibition rate in the assay with Escherichia coli [3] (Table 3, quantity added 1000 ppm) is 85%; in the assay with Escherichia coli [3] (Table 5, quantity 250 ppm), “weak antibacterial activity”; in the assay on Escherichia coli [3] (Table 5, quantity 1000 ppm), “complete inhibition against proliferation of E. coli could not be achieved”.

B2: unhydrolyzed Fe-LF: Comparison sample of Test 7; table says unhydrolyzed Fe-LF ?, text says unhydrolyzed LF (protein, UniProt P24627 20-708, looked up)
Lactotransferrin: APRKNVRWCTISQPEWFKCRRWQWRMKKLGAPSITCVRRAFALECIRAIAEKKADAVTLDGGMVFEAGRDPYKLRPVAAEIYGTKESPQTHYYAVAVVKKGSNFQLDQLQGRKSCHTGLGRSAGWIIPMGILRPYLSWTESLEPLQGAVAKFFSASCVPCIDRQAYPNLCQLCKGEGENQCACSSREPYFGYSGAFKCLQDGAGDVAFVKETTVFENLPEKADRDQYELLCLNNSRAPVDAFKECHLAQVPSHAVVARSVDGKEDLIWKLLSKAQEKFGKNKSRSFQLFGSPPGQRDLLFKDSALGFLRIPSKVDSALYLGSRYLTTLKNLRETAEEVKARYTRVVWCAVGPEEQKKCQQWSQQSGQNVTCATASTTDDCIVLVLKGEADALNLDGGYIYTAGKCGLVPVLAENRKSSKHSSLDCVLRPTEGYLAVAVVKKANEGLTWNSLKDKKSCHTAVDRTAGWNIPMGLIVNQTGSCAFDEFFSQSCAPGADPKSRLCALCAGDDQGLDKCVPNSKEKYYGYTGAFRCLAEDVGDVAFVKNDTVWENTNGESTADWAKNLNREDFRLLCLDGTRKPVTEAQSCHLAVAPNHAVVSRSDRAAHVKQVLLHQQALFGKNGKNCPDKFCLFKSETKNLLFNDNTECLAKLGGRPTYEEYLGTEYVTAIANLKKCSTSPLLEACAFLTR
modifications: iron-saturated
For the molecule B2, the “change in appearance of milk” value in assay [2] (preservation day 0, 3 test tubes) was “no change”; in assay [2] (preservation day 3, 3 test tubes) it was “no change”; in assay [2] (preservation day 7, 3 test tubes), “no change”; in assay [2] (setting [4]) it was “no change”; in assay [2] (setting [5]), “coagulated”.

(Values after US5389611A, “Lactoferrin hydrolyzate for use as an antibacterial agent and as a tyrosinase inhibition agent” (priority 1990, dated 1995).)
